Legend:
Assay in all cases: SEC; 50 µM AtPhyB PCM + 10 µM AtPIF-EYFP (5:1), illuminated with red light (650 nm, 2 min; results say 640 nm), Pfr state; Superdex 200 Increase 10/300 GL; 67 mM sodium phosphate pH 8.0, 200 mM NaCl
Conditions in all cases: both partners purified
P3.fus-EYFP = target: T1, P3.fus-EYFP (Arabidopsis thaliana)
T1 chain: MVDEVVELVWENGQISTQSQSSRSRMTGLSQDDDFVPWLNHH

P6.fus-EYFP = target: T2, P6.fus-EYFP (Arabidopsis thaliana)
T2 chain: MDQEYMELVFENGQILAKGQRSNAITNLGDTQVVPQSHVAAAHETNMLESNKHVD

P3.A-EYFP = target: T3, P3.A-EYFP (Arabidopsis thaliana)
T3 chain: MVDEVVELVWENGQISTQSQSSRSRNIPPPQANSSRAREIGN

P6.A-EYFP = target: T4, P6.A-EYFP (Arabidopsis thaliana)
T4 chain: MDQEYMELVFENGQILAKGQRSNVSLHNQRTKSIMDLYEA

P3.As-EYFP = target: T5, P3.As-EYFP (Arabidopsis thaliana)
T5 chain: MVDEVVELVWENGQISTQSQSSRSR

P6.As-EYFP = target: T6, P6.As-EYFP (Arabidopsis thaliana)
T6 chain: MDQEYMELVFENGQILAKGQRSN

P3.AA-EYFP = target: T7, P3.AA-EYFP (Arabidopsis thaliana)
T7 chain: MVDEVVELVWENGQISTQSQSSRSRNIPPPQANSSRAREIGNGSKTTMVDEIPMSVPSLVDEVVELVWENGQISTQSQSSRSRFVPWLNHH

P6.AA-EYFP = target: T8, P6.AA-EYFP (Arabidopsis thaliana)
T8 chain: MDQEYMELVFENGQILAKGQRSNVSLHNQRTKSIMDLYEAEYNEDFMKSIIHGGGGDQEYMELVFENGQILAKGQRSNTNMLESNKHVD

P3.AAfus-EYFP = target: T9, P3.AAfus-EYFP (Arabidopsis thaliana)
T9 chain: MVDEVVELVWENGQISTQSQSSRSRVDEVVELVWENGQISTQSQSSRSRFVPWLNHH

[1] = target: T10, P3 (AtPIF3 1-100 without the N-terminal region preceding APB.A)-EYFP (Arabidopsis thaliana)
T10 chain: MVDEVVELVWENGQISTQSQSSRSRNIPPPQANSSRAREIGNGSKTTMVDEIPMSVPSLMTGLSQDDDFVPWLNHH

[2] = target: T11, P6 (AtPIF6 1-100 without the N-terminal region preceding APB.A)-EYFP (Arabidopsis thaliana)
T11 chain: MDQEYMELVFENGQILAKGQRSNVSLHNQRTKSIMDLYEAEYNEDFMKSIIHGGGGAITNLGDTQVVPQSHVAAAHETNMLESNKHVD

[3] = target: T12, AtPIF3 (1-100)-EYFP, P3.100 (Arabidopsis thaliana, UniProt O80536 1-100)
T12 construct: A. thaliana PIF3, residues 1-100; His6-SUMO only on the pET-19b construct that was purified; the pET-28c construct used in lysate has the same AtPIF part, linker and EYFP; also called P3.100-EYFP; source: E. coli BL21(DE3): in crude lysate (pET-28c), and purified (pET-19b; IMAC, SENP2 cleavage, second IMAC, optional anion exchange); not shown: His6-SUMO, N-terminal, cleaved
T12 sequence (looked up): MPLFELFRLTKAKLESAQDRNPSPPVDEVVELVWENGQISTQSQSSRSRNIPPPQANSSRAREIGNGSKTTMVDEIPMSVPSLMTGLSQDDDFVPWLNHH

Measured: stoichiometry N

B1: Arabidopsis thaliana phytochrome B photosensory core module (AtPhyB PCM) (domain or fragment, UniProt P14713 1-651, looked up)
chain: MVSGVGGSGGGRGGGRGGEEEPSSSHTPNNRRGGEQAQSSGTKSLRPRSNTESMSKAIQQYTVDARLHAVFEQSGESGKSFDYSQSLKTTTYGSSVPEQQITAYLSRIQRGGYIQPFGCMIAVDESSFRIIGYSENAREMLGIMPQSVPTLEKPEILAMGTDVRSLFTSSSSILLERAFVAREITLLNPVWIHSKNTGKPFYAILHRIDVGVVIDLEPARTEDPALSIAGAVQSQKLAVRAISQLQALPGGDIKLLCDTVVESVRDLTGYDRVMVYKFHEDEHGEVVAESKRDDLEPYIGLHYPATDIPQASRFLFKQNRVRMIVDCNATPVLVVQDDRLTQSMCLVGSTLRAPHGCHSQYMANMGSIASLAMAVIINGNEDDGSNVASGRSSMRLWGLVVCHHTSSRCIPFPLRYACEFLMQAFGLQLNMELQLALQMSEKRVLRTQTLLCDMLLRDSPAGIVTQSPSIMDLVKCDGAAFLYHGKYYPLGVAPSEVQIKDVVEWLLANHADSTGLSTDSLGDAGYPGAAALGDAVCGMAVAYITKRDFLFWFRSHTAKEIKWGGAKHHPEDKDDGQRMHPRSSFQAFLEVVKSRSQPWETAEMDAIHSLQLILRDSFKESEAAMNSKVVDGVVQPCRDMAGEQGIDELGA
modifications: covalently incorporated bilin chromophore (PCB; co-expressed Synechocystis sp. heme oxygenase 1 and pcyA)
notes: A. thaliana phytochrome B, photosensory core module (PAS-GAF-PHY with N-terminal extension), residues 1-651; Pr state (far-red light or dark) and Pfr state (red light; Pfr/Pr about 0.56/0.44) are told apart by the assays; In the cell experiments other constructs were used (PCM-VP16; PCM 1-650 with CAAX); source: E. coli BL21(DE3), plasmid pDG282, purified (Ni-NTA IMAC, anion exchange)
1: all assays above

Source: paper PMC6888877, “Deconstructing and repurposing the light-regulated interplay between Arabidopsis phytochromes and interacting factors” (Communications Biology, 2019)
